From patent US20050175608A1 (Kyowa Kirin, published 2005)

Molecular target: T1, compound 1 as a partial peptide of FGF-8 with the C terminal labeled with biotin (human, C terminal labeled with biotin)
T1 construct: Captured on Sensor Chip SA (35 RU) for BIAcore 2000; also called compound 1 labeled with biotin; FGF-8 peptide
T1 peptide: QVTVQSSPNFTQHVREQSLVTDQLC
Experiment: BIAcore 2000, biotin-labeled compound 1 on SA chip (35 RU), antibody 16.7 µg/mL; dissociation hardly observed
Protocol: (§1) In order to examine the FGF-8 binding activity of the anti-FGF-8 neutralizing CDR-grafted antibodies obtained in 5. of Reference Example 3, the FGF-8 binding activity of the various anti-FGF-8 neutralizing CDR-grafted antibodies was measured and compared through BIAcore 2000 using compound 1 as a partial peptide of FGF-8 with the C terminal labeled with biotin in the following manner. The anti-FGF-8 neutralizing chimeric antibody KM3034 derived from CHO/DG44 cells obtained in 3. (1) of Reference Example 1 was used as a positive control.
(§2) HBS-EP was used as a sample diluent and a buffer during measurement. First, Sensor Chip SA (manufactured by BIACORE) was installed, and 5 μL of compound 1 labeled with biotin which had been adjusted to 0.05 μg/mL was added at a flow rate of 5 μL/min. Then, 5 μL of a 10 mmol/L glycine-hydrochloride solution (pH 1.5) was added twice continuously to wash the tip surface. The immobilization amount of the FGF-8 peptide was 35 RU.
60 μL of each of the antibody solutions was added to an FGF-8 peptide immobilized flow cell at a flow rate of 20 μL/min, and the dissociation reaction was then monitored for 3 minutes. After the dissociation reaction, 20 μL of 10 mmol/L glycine-hydrochloride solution (pH 1.5) was added twice continuously to regenerate the chip surface. This cycle was performed on the antibody solution at various concentrations (from 50 to 1.85 μg/mL) to obtain sensor grams at various concentrations. The sensor grams of the respective antibodies were converted to sensor grams of specific reactions by deduceing a sensor gram obtained using the chimeric antibody KM871 to GD3 as a negative control.

Binder	binding result
anti-FGF-8 neutralizing CDR-grafted antibody HV0LV3-1/CHO (antibody, V domains shown, HV.0 + LV.3-1; also called KM8036) VH: QVQLVQSGAEVKKPGASVKVSCKASGYTFTDYYLNWVRQAPGQGLEWMGEIDPGSDSIYYNENLEGRVTITADTSTSTAYMELSSLRSEDTAVYYCARYGYSRYDVRFVYWGQGTLVTVSS VL: DVVMTQSPLSLPVTPGEPASISCRSSQSLVHSNGRTYLEWYLQKPGQSPQVLIYKVSNRISGVPDRFSGSGSGTDFTLKISRVEAEDVGVYFCFQGSHVPYTFGQGTKVEIK	binds
anti-FGF-8 neutralizing chimeric antibody KM3034 (antibody, V domains shown, expressed in CHO/DG44 cells; also called human chimeric antibody KM3034) VH: QVQLQQSGAEVARPGASVKLSCKASGYTFTDYYLNWVKQRSGQGLEWIGEIDPGSDSIYYNENLEGRATLTADKSSSTAYMQLNSLTSEDSAVYFCARYGYSRYDVRFVYWGQGTLVTVST VL: DVLMTQTPLSLPVSLGDQASISCRSSQSLVHSNGRTYLEWYLQKPGQSPKVLIYKVSNRISGVPDRFSGSGSGTDFTLKISRVEAEDLGVYFCFQGSHVPYTFGGGTKLEIK	binds
anti-FGF-8 neutralizing CDR-grafted antibody HV0LV4-1/CHO (antibody, V domains shown, HV.0 + LV.4-1; CHO/DG44 cell-derived) VH: QVQLVQSGAEVKKPGASVKVSCKASGYTFTDYYLNWVRQAPGQGLEWMGEIDPGSDSIYYNENLEGRVTITADTSTSTAYMELSSLRSEDTAVYYCARYGYSRYDVRFVYWGQGTLVTVSS VL: DVVMTQSPLSLPVTPGEPASISCRSSQSLVHSNGRTYLEWYLQKPGQSPKVLIYKVSNRISGVPDRFSGSGSGTDFTLKISRVEAEDVGVYFCFQGSHVPYTFGQGTKVEIK	binds
anti-FGF-8 neutralizing CDR-grafted antibody HV0LV2-1/CHO (antibody, V domains shown, HV.0 + LV.2-1; CHO/DG44 cell-derived) VH: QVQLVQSGAEVKKPGASVKVSCKASGYTFTDYYLNWVRQAPGQGLEWMGEIDPGSDSIYYNENLEGRVTITADTSTSTAYMELSSLRSEDTAVYYCARYGYSRYDVRFVYWGQGTLVTVSS VL: DIVMTQSPLSLPVTPGEPASISCRSSQSLVHSNGRTYLEWYLQKPGQSPQVLIYKVSNRISGVPDRFSGSGSGTDFTLKISRVEAEDVGVYFCFQGSHVPYTFGQGTKVEIK	binds
anti-FGF-8 neutralizing CDR-grafted antibody HV0LV6/CHO (antibody, V domains shown, HV.0 + LV.6; CHO/DG44 cell-derived; also called KM8034) VH: QVQLVQSGAEVKKPGASVKVSCKASGYTFTDYYLNWVRQAPGQGLEWMGEIDPGSDSIYYNENLEGRVTITADTSTSTAYMELSSLRSEDTAVYYCARYGYSRYDVRFVYWGQGTLVTVSS VL: DVVMTQSPLSLPVSLGEPASISCRSSQSLVHSNGRTYLEWYLQKPGQSPKVLIYKVSNRISGVPDRFSGSGSGTDFTLKISRVEAEDVGVYFCFQGSHVPYTFGQGTKVEIK	binds
anti-FGF-8 neutralizing CDR-grafted antibody HV0LV3-2/CHO (antibody, V domains shown, HV.0 + LV.3-2; CHO/DG44 cell-derived) VH: QVQLVQSGAEVKKPGASVKVSCKASGYTFTDYYLNWVRQAPGQGLEWMGEIDPGSDSIYYNENLEGRVTITADTSTSTAYMELSSLRSEDTAVYYCARYGYSRYDVRFVYWGQGTLVTVSS VL: DIVMTQSPLSLPVSLGEPASISCRSSQSLVHSNGRTYLEWYLQKPGQSPQLLIYKVSNRISGVPDRFSGSGSGTDFTLKISRVEAEDVGVYFCFQGSHVPYTFGQGTKVEIK	binds
anti-FGF-8 neutralizing CDR-grafted antibody HV0LV2-2/CHO (antibody, V domains shown, HV.0 + LV.2-2; CHO/DG44 cell-derived) VH: QVQLVQSGAEVKKPGASVKVSCKASGYTFTDYYLNWVRQAPGQGLEWMGEIDPGSDSIYYNENLEGRVTITADTSTSTAYMELSSLRSEDTAVYYCARYGYSRYDVRFVYWGQGTLVTVSS VL: DVVMTQSPLSLPVTPGEPASISCRSSQSLVHSNGRTYLEWYLQKPGQSPQLLIYKVSNRISGVPDRFSGSGSGTDFTLKISRVEAEDVGVYFCFQGSHVPYTFGQGTKVEIK	binds
anti-FGF-8 neutralizing CDR-grafted antibody HV0LV4-2/CHO (antibody, V domains shown, HV.0 + LV.4-2; CHO/DG44 cell-derived) VH: QVQLVQSGAEVKKPGASVKVSCKASGYTFTDYYLNWVRQAPGQGLEWMGEIDPGSDSIYYNENLEGRVTITADTSTSTAYMELSSLRSEDTAVYYCARYGYSRYDVRFVYWGQGTLVTVSS VL: DVVMTQSPLSLPVSLGEPASISCRSSQSLVHSNGRTYLEWYLQKPGQSPQLLIYKVSNRISGVPDRFSGSGSGTDFTLKISRVEAEDVGVYFCFQGSHVPYTFGQGTKVEIK	binds
anti-FGF-8 neutralizing CDR-grafted antibody HV0LV0/CHO (antibody, V domains shown, HV.0 + LV.0; CHO/DG44 cell-derived) VH: QVQLVQSGAEVKKPGASVKVSCKASGYTFTDYYLNWVRQAPGQGLEWMGEIDPGSDSIYYNENLEGRVTITADTSTSTAYMELSSLRSEDTAVYYCARYGYSRYDVRFVYWGQGTLVTVSS VL: DIVMTQSPLSLPVTPGEPASISCRSSQSLVHSNGRTYLEWYLQKPGQSPQLLIYKVSNRISGVPDRFSGSGSGTDFTLKISRVEAEDVGVYYCFQGSHVPYTFGQGTKVEIK	binds

Molecular target: T1, compound 1 as a partial peptide of …
Experiment: BIAcore 2000, biotin-labeled compound 1 on SA chip, antibody 16.7 µg/mL; dissociation hardly observed
Protocol: as §1, §2
60 μL of each of the antibody solutions was added to an FGF-8 peptide immobilized flow cell at a flow rate of 20 μL/min, and the dissociation reaction was then monitored for 3 minutes. After the dissociation reaction, 20 μL of 10 mmol/L glycine-hydrochloride solution (pH 1.5) was added twice continuously to regenerate the chip surface. […]

Binder	binding result
anti-FGF-8 neutralizing CDR-grafted antibody HV0LV4-3/CHO (antibody, V domains shown, HV.0 + LV.4-3; also called KM8035) VH: QVQLVQSGAEVKKPGASVKVSCKASGYTFTDYYLNWVRQAPGQGLEWMGEIDPGSDSIYYNENLEGRVTITADTSTSTAYMELSSLRSEDTAVYYCARYGYSRYDVRFVYWGQGTLVTVSS VL: DIVMTQSPLSLPVSLGEPASISCRSSQSLVHSNGRTYLEWYLQKPGQSPQVLIYKVSNRISGVPDRFSGSGSGTDFTLKISRVEAEDVGVYFCFQGSHVPYTFGQGTKVEIK	binds
anti-FGF-8 neutralizing CDR-grafted antibody HV0LV3-3/CHO (antibody, V domains shown, HV.0 + LV.3-3; CHO/DG44 cell-derived) VH: QVQLVQSGAEVKKPGASVKVSCKASGYTFTDYYLNWVRQAPGQGLEWMGEIDPGSDSIYYNENLEGRVTITADTSTSTAYMELSSLRSEDTAVYYCARYGYSRYDVRFVYWGQGTLVTVSS VL: DIVMTQSPLSLPVSLGEPASISCRSSQSLVHSNGRTYLEWYLQKPGQSPQVLIYKVSNRISGVPDRFSGSGSGTDFTLKISRVEAEDVGVYYCFQGSHVPYTFGQGTKVEIK	binds

Molecular target: T2, FGF-8 (manufactured by R & D) (Homo sapiens (Human), UniProt P55075 23-215)
T2 sequence: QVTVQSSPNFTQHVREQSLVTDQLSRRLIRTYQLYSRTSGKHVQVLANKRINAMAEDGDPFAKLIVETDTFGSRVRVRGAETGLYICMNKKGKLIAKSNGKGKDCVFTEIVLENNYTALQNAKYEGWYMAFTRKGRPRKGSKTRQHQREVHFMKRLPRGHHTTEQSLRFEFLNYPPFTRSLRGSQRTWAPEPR
Experiment: cell-based or functional assay

Binder	FGF-8 neutralizing activity (FGF-8-dependent growth of SC-3 cells), relative to KM3034
anti-FGF-8 neutralizing CDR-grafted antibody HV0LV4-3/CHO (antibody, V domains shown, HV.0 + LV.4-3; also called KM8035) VH: QVQLVQSGAEVKKPGASVKVSCKASGYTFTDYYLNWVRQAPGQGLEWMGEIDPGSDSIYYNENLEGRVTITADTSTSTAYMELSSLRSEDTAVYYCARYGYSRYDVRFVYWGQGTLVTVSS VL: DIVMTQSPLSLPVSLGEPASISCRSSQSLVHSNGRTYLEWYLQKPGQSPQVLIYKVSNRISGVPDRFSGSGSGTDFTLKISRVEAEDVGVYFCFQGSHVPYTFGQGTKVEIK	~0.5 fold of KM3034
anti-FGF-8 neutralizing CDR-grafted antibody HV0LV3-3/CHO (antibody, V domains shown, HV.0 + LV.3-3; CHO/DG44 cell-derived) VH: QVQLVQSGAEVKKPGASVKVSCKASGYTFTDYYLNWVRQAPGQGLEWMGEIDPGSDSIYYNENLEGRVTITADTSTSTAYMELSSLRSEDTAVYYCARYGYSRYDVRFVYWGQGTLVTVSS VL: DIVMTQSPLSLPVSLGEPASISCRSSQSLVHSNGRTYLEWYLQKPGQSPQVLIYKVSNRISGVPDRFSGSGSGTDFTLKISRVEAEDVGVYYCFQGSHVPYTFGQGTKVEIK	~0.5 fold of KM3034

Molecular target: T3, BSA-compound 1 (conjugate of the human FGF-8 partial peptide compound 1 with bovine serum albumin) (human, not fully specified; C-terminal cysteine conjugated to BSA through SMCC)
T3 construct: Coated on ELISA plates; the BSA carrier is not written as a chain
T3 peptide: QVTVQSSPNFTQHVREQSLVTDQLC
Experiment: ELISA, plate coated with BSA-compound 1

Binder	binding result
anti-FGF-8 neutralizing CDR-grafted antibody HV0LV6 (antibody, V domains shown, HV.0 + LV.6; YB2/0 cell-derived; also called KM8037) VH: QVQLVQSGAEVKKPGASVKVSCKASGYTFTDYYLNWVRQAPGQGLEWMGEIDPGSDSIYYNENLEGRVTITADTSTSTAYMELSSLRSEDTAVYYCARYGYSRYDVRFVYWGQGTLVTVSS VL: DVVMTQSPLSLPVSLGEPASISCRSSQSLVHSNGRTYLEWYLQKPGQSPKVLIYKVSNRISGVPDRFSGSGSGTDFTLKISRVEAEDVGVYFCFQGSHVPYTFGQGTKVEIK	binds
anti-FGF-8 neutralizing CDR-grafted antibody HV0LV0 (antibody, V domains shown, HV.0 + LV.0) VH: QVQLVQSGAEVKKPGASVKVSCKASGYTFTDYYLNWVRQAPGQGLEWMGEIDPGSDSIYYNENLEGRVTITADTSTSTAYMELSSLRSEDTAVYYCARYGYSRYDVRFVYWGQGTLVTVSS VL: DIVMTQSPLSLPVTPGEPASISCRSSQSLVHSNGRTYLEWYLQKPGQSPQLLIYKVSNRISGVPDRFSGSGSGTDFTLKISRVEAEDVGVYYCFQGSHVPYTFGQGTKVEIK	binds
anti-FGF-8 neutralizing CDR-grafted antibody HV6LV6 (antibody, V domains shown, HV.6 + LV.6) VH: QVQLVQSGAEVARPGASVKVSCKASGYTFTDYYLNWVRQRSGQGLEWIGEIDPGSDSIYYNENLEGRVTITADTSTSTAYMELSSLRSEDTAVYFCARYGYSRYDVRFVYWGQGTLVTVSS VL: DVVMTQSPLSLPVSLGEPASISCRSSQSLVHSNGRTYLEWYLQKPGQSPKVLIYKVSNRISGVPDRFSGSGSGTDFTLKISRVEAEDVGVYFCFQGSHVPYTFGQGTKVEIK	binds
